Results as given in patent publication US20150274828A1 (SHANGHAI SERUM BIOTECHNOLOGY, published 2015).

Molecular target: T1, EGFR-Fc fusion protein (recombinant EGFR extracellular region-Fc) (human, UniProt P00533 25-645)
T1 construct: extracellular domain; not shown: Fc part supplied by vector pABG1
Assay: BLI ForteBio QKe, biotinylated EGFR-Fc on streptavidin sensor, antibody 20 nM; fold reduction of affinity, parent Ame55 = 1;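 note: parent antibody affinity set as 1, with values giving the fold drop in affinity of each mutant antibody relative to that parent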

Binder	Affinity change [fold]
Ame55 mutant, light chain 26G(C1) (antibody, V domains shown, Mutant of Ame55) VH: EVQLVQSGAEVKKPGESLKISCKGSGYSFTSYWIGWVRQMPGKGLEWMGIIYPGDSDTRYSPSFQGQVTISADKSISTAYLQWSSLKASDTAMYYCARGIIYPSNVAVWGQGTLVTVSS VL: SYELTQPPSVSVAPGQTARITCSGDGLGDKYASWYQQKPGQAPVLVIYEDSKRPSGIPERFSGSNSGNTATLTISGTQAEDEADYYCSVWDGDWGMPVFGGGTKLTVLG	0.5
Ame55 mutant, light chain 26K(C3) (antibody, V domains shown, Mutant of Ame55) VH: EVQLVQSGAEVKKPGESLKISCKGSGYSFTSYWIGWVRQMPGKGLEWMGIIYPGDSDTRYSPSFQGQVTISADKSISTAYLQWSSLKASDTAMYYCARGIIYPSNVAVWGQGTLVTVSS VL: SYELTQPPSVSVAPGQTARITCSGDKLGDKYASWYQQKPGQAPVLVIYEDSKRPSGIPERFSGSNSGNTATLTISGTQAEDEADYYCSVWDGDWGMPVFGGGTKLTVLG	0.3
Ame55 mutant, light chain 26N(C2) (antibody, V domains shown, Mutant of Ame55) VH: EVQLVQSGAEVKKPGESLKISCKGSGYSFTSYWIGWVRQMPGKGLEWMGIIYPGDSDTRYSPSFQGQVTISADKSISTAYLQWSSLKASDTAMYYCARGIIYPSNVAVWGQGTLVTVSS VL: SYELTQPPSVSVAPGQTARITCSGDNLGDKYASWYQQKPGQAPVLVIYEDSKRPSGIPERFSGSNSGNTATLTISGTQAEDEADYYCSVWDGDWGMPVFGGGTKLTVLG	1
Ame55 mutant, light chain 29E (antibody, V domains shown, Mutant of Ame55) VH: EVQLVQSGAEVKKPGESLKISCKGSGYSFTSYWIGWVRQMPGKGLEWMGIIYPGDSDTRYSPSFQGQVTISADKSISTAYLQWSSLKASDTAMYYCARGIIYPSNVAVWGQGTLVTVSS VL: SYELTQPPSVSVAPGQTARITCSGDALGEKYASWYQQKPGQAPVLVIYEDSKRPSGIPERFSGSNSGNTATLTISGTQAEDEADYYCSVWDGDWGMPVFGGGTKLTVLG	> 100
Ame55 mutant, light chain 32I (antibody, V domains shown, Mutant of Ame55) VH: EVQLVQSGAEVKKPGESLKISCKGSGYSFTSYWIGWVRQMPGKGLEWMGIIYPGDSDTRYSPSFQGQVTISADKSISTAYLQWSSLKASDTAMYYCARGIIYPSNVAVWGQGTLVTVSS VL: SYELTQPPSVSVAPGQTARITCSGDALGDKYISWYQQKPGQAPVLVIYEDSKRPSGIPERFSGSNSGNTATLTISGTQAEDEADYYCSVWDGDWGMPVFGGGTKLTVLG	1
Ame55 mutant, light chain 32V (antibody, V domains shown, Mutant of Ame55) VH: EVQLVQSGAEVKKPGESLKISCKGSGYSFTSYWIGWVRQMPGKGLEWMGIIYPGDSDTRYSPSFQGQVTISADKSISTAYLQWSSLKASDTAMYYCARGIIYPSNVAVWGQGTLVTVSS VL: SYELTQPPSVSVAPGQTARITCSGDALGDKYVSWYQQKPGQAPVLVIYEDSKRPSGIPERFSGSNSGNTATLTISGTQAEDEADYYCSVWDGDWGMPVFGGGTKLTVLG	2
Ame55 mutant, light chain 33Y (antibody, V domains shown, Mutant of Ame55) VH: EVQLVQSGAEVKKPGESLKISCKGSGYSFTSYWIGWVRQMPGKGLEWMGIIYPGDSDTRYSPSFQGQVTISADKSISTAYLQWSSLKASDTAMYYCARGIIYPSNVAVWGQGTLVTVSS VL: SYELTQPPSVSVAPGQTARITCSGDALGDKYAYWYQQKPGQAPVLVIYEDSKRPSGIPERFSGSNSGNTATLTISGTQAEDEADYYCSVWDGDWGMPVFGGGTKLTVLG	2
Ame55 mutant, light chain 51G (antibody, V domains shown, Mutant of Ame55) VH: EVQLVQSGAEVKKPGESLKISCKGSGYSFTSYWIGWVRQMPGKGLEWMGIIYPGDSDTRYSPSFQGQVTISADKSISTAYLQWSSLKASDTAMYYCARGIIYPSNVAVWGQGTLVTVSS VL: SYELTQPPSVSVAPGQTARITCSGDALGDKYASWYQQKPGQAPVLVIYEDGKRPSGIPERFSGSNSGNTATLTISGTQAEDEADYYCSVWDGDWGMPVFGGGTKLTVLG	1
Ame55 mutant, light chain 55P (antibody, V domains shown, Mutant of Ame55) VH: EVQLVQSGAEVKKPGESLKISCKGSGYSFTSYWIGWVRQMPGKGLEWMGIIYPGDSDTRYSPSFQGQVTISADKSISTAYLQWSSLKASDTAMYYCARGIIYPSNVAVWGQGTLVTVSS VL: SYELTQPPSVSVAPGQTARITCSGDALGDKYASWYQQKPGQAPVLVIYEDSKRPPGIPERFSGSNSGNTATLTISGTQAEDEADYYCSVWDGDWGMPVFGGGTKLTVLG	2
Ame55 mutant, light chain 88A (antibody, V domains shown, Mutant of Ame55) VH: EVQLVQSGAEVKKPGESLKISCKGSGYSFTSYWIGWVRQMPGKGLEWMGIIYPGDSDTRYSPSFQGQVTISADKSISTAYLQWSSLKASDTAMYYCARGIIYPSNVAVWGQGTLVTVSS VL: SYELTQPPSVSVAPGQTARITCSGDALGDKYASWYQQKPGQAPVLVIYEDSKRPSGIPERFSGSNSGNTATLTISGTQAEDEADYYCAVWDGDWGMPVFGGGTKLTVLG	> 10
Ame55 mutant, light chain 88G (antibody, V domains shown, Mutant of Ame55) VH: EVQLVQSGAEVKKPGESLKISCKGSGYSFTSYWIGWVRQMPGKGLEWMGIIYPGDSDTRYSPSFQGQVTISADKSISTAYLQWSSLKASDTAMYYCARGIIYPSNVAVWGQGTLVTVSS VL: SYELTQPPSVSVAPGQTARITCSGDALGDKYASWYQQKPGQAPVLVIYEDSKRPSGIPERFSGSNSGNTATLTISGTQAEDEADYYCGVWDGDWGMPVFGGGTKLTVLG	3
Ame55 mutant, light chain 88L (antibody, V domains shown, Mutant of Ame55) VH: EVQLVQSGAEVKKPGESLKISCKGSGYSFTSYWIGWVRQMPGKGLEWMGIIYPGDSDTRYSPSFQGQVTISADKSISTAYLQWSSLKASDTAMYYCARGIIYPSNVAVWGQGTLVTVSS VL: SYELTQPPSVSVAPGQTARITCSGDALGDKYASWYQQKPGQAPVLVIYEDSKRPSGIPERFSGSNSGNTATLTISGTQAEDEADYYCLVWDGDWGMPVFGGGTKLTVLG	5
Ame55 mutant, light chain 88N (antibody, V domains shown, Mutant of Ame55) VH: EVQLVQSGAEVKKPGESLKISCKGSGYSFTSYWIGWVRQMPGKGLEWMGIIYPGDSDTRYSPSFQGQVTISADKSISTAYLQWSSLKASDTAMYYCARGIIYPSNVAVWGQGTLVTVSS VL: SYELTQPPSVSVAPGQTARITCSGDALGDKYASWYQQKPGQAPVLVIYEDSKRPSGIPERFSGSNSGNTATLTISGTQAEDEADYYCNVWDGDWGMPVFGGGTKLTVLG	> 10
Ame55 mutant, light chain 88Q (antibody, V domains shown, Mutant of Ame55) VH: EVQLVQSGAEVKKPGESLKISCKGSGYSFTSYWIGWVRQMPGKGLEWMGIIYPGDSDTRYSPSFQGQVTISADKSISTAYLQWSSLKASDTAMYYCARGIIYPSNVAVWGQGTLVTVSS VL: SYELTQPPSVSVAPGQTARITCSGDALGDKYASWYQQKPGQAPVLVIYEDSKRPSGIPERFSGSNSGNTATLTISGTQAEDEADYYCQVWDGDWGMPVFGGGTKLTVLG	2
Ame55 mutant, light chain 88Y (antibody, V domains shown, Mutant of Ame55) VH: EVQLVQSGAEVKKPGESLKISCKGSGYSFTSYWIGWVRQMPGKGLEWMGIIYPGDSDTRYSPSFQGQVTISADKSISTAYLQWSSLKASDTAMYYCARGIIYPSNVAVWGQGTLVTVSS VL: SYELTQPPSVSVAPGQTARITCSGDALGDKYASWYQQKPGQAPVLVIYEDSKRPSGIPERFSGSNSGNTATLTISGTQAEDEADYYCYVWDGDWGMPVFGGGTKLTVLG	5
Ame55 mutant, light chain 89L (antibody, V domains shown, Mutant of Ame55) VH: EVQLVQSGAEVKKPGESLKISCKGSGYSFTSYWIGWVRQMPGKGLEWMGIIYPGDSDTRYSPSFQGQVTISADKSISTAYLQWSSLKASDTAMYYCARGIIYPSNVAVWGQGTLVTVSS VL: SYELTQPPSVSVAPGQTARITCSGDALGDKYASWYQQKPGQAPVLVIYEDSKRPSGIPERFSGSNSGNTATLTISGTQAEDEADYYCSLWDGDWGMPVFGGGTKLTVLG	5
Ame55 mutant, light chain 90A (antibody, V domains shown, Mutant of Ame55) VH: EVQLVQSGAEVKKPGESLKISCKGSGYSFTSYWIGWVRQMPGKGLEWMGIIYPGDSDTRYSPSFQGQVTISADKSISTAYLQWSSLKASDTAMYYCARGIIYPSNVAVWGQGTLVTVSS VL: SYELTQPPSVSVAPGQTARITCSGDALGDKYASWYQQKPGQAPVLVIYEDSKRPSGIPERFSGSNSGNTATLTISGTQAEDEADYYCSVADGDWGMPVFGGGTKLTVLG	> 10
Ame55 mutant, light chain 91A (antibody, V domains shown, Mutant of Ame55) VH: EVQLVQSGAEVKKPGESLKISCKGSGYSFTSYWIGWVRQMPGKGLEWMGIIYPGDSDTRYSPSFQGQVTISADKSISTAYLQWSSLKASDTAMYYCARGIIYPSNVAVWGQGTLVTVSS VL: SYELTQPPSVSVAPGQTARITCSGDALGDKYASWYQQKPGQAPVLVIYEDSKRPSGIPERFSGSNSGNTATLTISGTQAEDEADYYCSVWAGDWGMPVFGGGTKLTVLG	> 10
Ame55 mutant, light chain 92A (antibody, V domains shown, Mutant of Ame55) VH: EVQLVQSGAEVKKPGESLKISCKGSGYSFTSYWIGWVRQMPGKGLEWMGIIYPGDSDTRYSPSFQGQVTISADKSISTAYLQWSSLKASDTAMYYCARGIIYPSNVAVWGQGTLVTVSS VL: SYELTQPPSVSVAPGQTARITCSGDALGDKYASWYQQKPGQAPVLVIYEDSKRPSGIPERFSGSNSGNTATLTISGTQAEDEADYYCSVWDADWGMPVFGGGTKLTVLG	2
Ame55 mutant, light chain 92P (antibody, V domains shown, Mutant of Ame55) VH: EVQLVQSGAEVKKPGESLKISCKGSGYSFTSYWIGWVRQMPGKGLEWMGIIYPGDSDTRYSPSFQGQVTISADKSISTAYLQWSSLKASDTAMYYCARGIIYPSNVAVWGQGTLVTVSS VL: SYELTQPPSVSVAPGQTARITCSGDALGDKYASWYQQKPGQAPVLVIYEDSKRPSGIPERFSGSNSGNTATLTISGTQAEDEADYYCSVWDPDWGMPVFGGGTKLTVLG	1
Ame55 mutant, light chain 92S (antibody, V domains shown, Mutant of Ame55) VH: EVQLVQSGAEVKKPGESLKISCKGSGYSFTSYWIGWVRQMPGKGLEWMGIIYPGDSDTRYSPSFQGQVTISADKSISTAYLQWSSLKASDTAMYYCARGIIYPSNVAVWGQGTLVTVSS VL: SYELTQPPSVSVAPGQTARITCSGDALGDKYASWYQQKPGQAPVLVIYEDSKRPSGIPERFSGSNSGNTATLTISGTQAEDEADYYCSVWDSDWGMPVFGGGTKLTVLG	4
